Assay results taken from patent publication US20250197855A1 (ALNYLAM PHARMACEUTICALS, published 2025).

How the values were obtained:
[1] = target: T1, Aβ in APPPS1-21 mouse brain (from the human APP transgene bearing the Swedish mutation) (human (transgene in mouse), UniProt P05067 672-713); experiment: proximity ligation assay (PLA) on APPPS1-21 mouse brain sections
T1 construct: also called methoxy-X04+ Aβ plaque

[2] = target: T2, C1q (mouse, in APPPS1-21 and WT mouse brain cortex sections) (mouse, UniProt P98086 23-245; P14106 26-253; Q02105 30-246); experiment: proximity ligation assay (Duolink PLA) on brain cortex sections of 16 weeks old APPPS1-21 mice
T2 construct: Endogenous tissue protein detected with mouse anti-C1q (HM1096BT, Hycult)
T2 sequence (P98086 23-245 limits assumed, chain 1 of 3): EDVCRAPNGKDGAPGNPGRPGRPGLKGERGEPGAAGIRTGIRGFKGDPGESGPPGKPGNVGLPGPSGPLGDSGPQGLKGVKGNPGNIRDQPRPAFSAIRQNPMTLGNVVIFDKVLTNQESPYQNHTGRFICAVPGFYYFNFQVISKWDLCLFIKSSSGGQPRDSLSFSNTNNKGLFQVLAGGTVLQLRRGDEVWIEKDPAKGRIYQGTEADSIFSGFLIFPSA
T2 sequence (P14106 26-253 limits assumed, chain 2 of 3): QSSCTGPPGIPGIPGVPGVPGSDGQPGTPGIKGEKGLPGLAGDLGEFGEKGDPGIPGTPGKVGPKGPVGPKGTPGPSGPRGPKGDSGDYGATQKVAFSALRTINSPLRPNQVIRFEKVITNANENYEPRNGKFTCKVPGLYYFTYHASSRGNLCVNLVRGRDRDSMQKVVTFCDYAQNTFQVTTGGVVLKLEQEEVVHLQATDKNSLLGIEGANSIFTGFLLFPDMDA
T2 sequence (Q02105 30-246 limits assumed, chain 3 of 3): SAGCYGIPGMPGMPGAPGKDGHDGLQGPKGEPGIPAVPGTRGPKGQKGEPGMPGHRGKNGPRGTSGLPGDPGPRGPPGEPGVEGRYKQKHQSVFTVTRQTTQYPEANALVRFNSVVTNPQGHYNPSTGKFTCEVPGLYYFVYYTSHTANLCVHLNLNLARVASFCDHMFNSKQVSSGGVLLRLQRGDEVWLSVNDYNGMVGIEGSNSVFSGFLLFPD
Description: Protein-protein binding ex vivo was performed by Duolink® PLA kit (DUO92101 SIGMA).
PLA signal was detected by Duolink® PLA kit according to manufacturer's protocol. Leica confocal microscope (SP8, Leica, Germany) equipped with a 100× oil objective (NA 1.4) were used for image. 6 fields per each sample were recorded, 3D reconstructions and the number of PLA signals per volume were performed using LAS-X software package (Leica, v1.2, Germany).
APPPS1-21 mice were treated with the liver-specific C5 siRNA AD-61679.

T1 sequence (P05067 672-713 limits assumed, change not shown): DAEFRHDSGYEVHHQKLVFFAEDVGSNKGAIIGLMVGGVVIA

binding result [1]: binds | binding result [2]: binds
B1: apolipoprotein E (mouse, in APPPS1-21 and WT mouse brain cortex sections) (other, UniProt P08226 19-311, looked up)
chain: EGEPEVTDQLEWQSNQPWEQALNRFWDYLRWVQTLSDQVQEELQSSQVTQELTALMEDTMTEVKAYKKELEEQLGPVAEETRARLGKEVQAAQARLGADMEDLRNRLGQYRNEVHTMLGQSTEEIRARLSTHLRKMRKRLMRDAEDLQKRLAVYKAGAREGAERGVSAIRERLGPLVEQGRQRTANLGAGAAQPLRDRAQAFGDRIRGRLEEVGNQARDRLEEVREHMEEVRSKMEEQTQQIRLQAEIFQARLKGWFEPIVEDMHRQWANLMEKIQASVATNPIITPVAQENQ
notes: Detected with rabbit anti-mouse ApoE (ab183597); also called ApoE
